According to patent US20220280636A1 (Merck Sharp & Dohme, published 2022):

What was measured:
[1] = target: T1, rabbit whole molecule IgG (rabbit); assay: SPR; IgG amine coupled to CM5 chip, construct flowed at 750 ug/ml; end-point RU of association phase
T1 construct: Immobilised partner in SPR; also called Rabbit IgG; Rabbit IgG Whole Molecule

[2] = target: T2, guinea pig whole molecule IgG (guinea pig); assay: as above
T2 construct: Immobilised partner in SPR; also called Guinea Pig IgG

human whole molecule IgG = target: T3, human whole molecule IgG (human); assay: as above
T3 construct: Immobilised partner in SPR; also called Human IgG; Human IgG Whole Molecule

mouse whole molecule IgG = target: T4, mouse whole molecule IgG (mouse); assay: as above
T4 construct: Immobilised partner in SPR; also called Mouse IgG

human IgG Fc = target: T5, human IgG Fc (human); assay: as above
T5 construct: domain: Fc; Immobilised partner in SPR; also called human IgG Fc domain

gI-2t 262 = target: T6, gI-2t 262 (HSV-2, UniProt P06764 21-262); assay: SEC-MALS of the gE-2t 417 / gI-2t 262 heterodimer complex
T6 construct: Partner of gE-2t 417 in the SEC-MALS analysis of complex formation; also called soluble gI-2; not shown: glycine linker and thrombin-cleavable 6-Histidine tag

B1: gE-2t 417 (other)
chain: AAPRTSWKRVTSGEDVVLLPAPAGPEERTRAHKLLWAAEPLDACGPLRPSWVALWPPRRVLETVVDAACMRAPEPLAIAYSPPFPAGDEGLYSELAWRDRVAVVNESLVIYGALETDSGLYTLSVVGLSDEARQVASVVLVVEPAPVPTPTPDDYDEEDDAGVSERTPVSVPPPTPPRRPPVAPPTHPRVIPEVSHVRGVTVHMETPEAILFAPGETFGTNVSIHAIAHDDGPYAMDVVWMRFDVPSSCAEMRIYEACLYHPQLPECLSPADAPCAVSSWAYRLAVRSYAGCSRTTPPPRCFAEARMEPVPGLAWLASTVNLEFQHASPQHAGLYLCVVYVDDHIHAWGHMTISTAAQYRNAVVEQHLPQRQPEPVEPTRPHVRAPPPAPSARGPLR
notes: Monomer, mammalian expression; also called gE-2t 417 WT; gE-2t 417 wild type; not shown: glycine linker and thrombin-cleavable 6-Histidine tag
RU Post Association [1]: 11 RU | RU Post Association [2]: 5 RU | RU Post Association (human whole molecule IgG): 4 RU | RU Post Association (mouse whole molecule IgG): 10 RU | RU Post Association (human IgG Fc): 5 RU | binding result (gI-2t 262): binds
